Experimental data from publication PMC6093649.

Molecular target: T1, Chp2 chromodomain (recombinant Chp2-CD, wild type) (S. pombe)
T1 sequence (O42934 whole entry, looked up): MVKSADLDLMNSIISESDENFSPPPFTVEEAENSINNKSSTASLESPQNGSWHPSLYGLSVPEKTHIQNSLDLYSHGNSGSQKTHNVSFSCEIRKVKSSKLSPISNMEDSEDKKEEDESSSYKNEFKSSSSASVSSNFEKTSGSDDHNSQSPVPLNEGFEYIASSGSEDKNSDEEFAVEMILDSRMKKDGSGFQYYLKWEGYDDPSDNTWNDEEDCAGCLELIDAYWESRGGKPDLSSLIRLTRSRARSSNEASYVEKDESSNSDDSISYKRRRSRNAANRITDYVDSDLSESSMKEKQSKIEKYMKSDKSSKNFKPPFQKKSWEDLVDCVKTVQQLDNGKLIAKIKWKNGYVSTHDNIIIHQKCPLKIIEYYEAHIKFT
Test: ITC; MicroCal VP-ITC, 20°C; Chp2-CD protein in 20 mM KPO4 pH 6.8, 100 mM NaCl; H3K9me3 peptide injected into the protein in 1-μl aliquots at 3-min intervals

Kd: 4.37 µM
Binder: ARTKQTARKSTGGKAPRY (trimethyl-lysine at position 9 (Lys[Me]3)) [K9-trimethylated histone H3 (H3K9me3) peptide (1–18)]
